These results are taken from US20080072349A1 (PIONEER HI BRED INTERNATIONAL, published 2008).

Common to all, as to assay: cell-based or functional assay
Experiment [1] has as its target T1, purified deactivated Arabidopsis Rubisco (Ribulose-1,5-bisphosphate carboxylase/oxygenase) (Arabidopsis, UniProt O03042 3-479; P10795 55-180).
The target in experiment [2] is T1, purified deactivated Arabidopsis …. This is another data set of the same source.
For experiment [3] the target is unchanged. The source holds these as a separate data set.

B1: Rubisco Activase derived polypeptide 183H12 (enzyme)
chain: MVKEDKQTDGDRWRGLAYDTSDDQQDITRGKGMVDSVFQAPMGTGTHHAVLSSYEYVSQGLRQYNLDNMMDGFYIAPAFMDKLVVHITKNFLTLPNIKVPLILGIWGGKGQGKSFQCELVMAKMGINPIMMSAGELESGNAGEPAKLIRQRYREAADLIKKGKMCCLFINDLDAGAGRMGGTTQYTVNNQMVNATLMNIADNPTNVQLPGMYNKEENARVPIICTGNDFSTLYAPLIRDGRMEKFYWAPTREDRIGVCKGIFRTDKIKDEDIVRLVDQFPGQSIDFFGALRARVYDDEVRKFVESLGVEKIGKRLVNSREGPPVFEQPEMTYEKLMEYGNMLVMEQENVKRVQLAETYLSQAALGDANADAIGRGTFYGKTEEKEPSKLE
Take B1: in experiment [1], the “Activation of deactivated Rubisco assay, T.S 45° C./25° C.” value (“Activation … T.S 45° C./25° C.” below) was found to be 52%; the “Activation of deactivated Rubisco assay, T.S 45 min at 40° C./15 min at 25° C.” value (“Activation … at 40° C./15 min at 25° C.” for short) was 54%; the “Rubisco activation under catalytic conditions assay, T.S 40° C./25° C.” value (from here on “Rubisco activation”) worked out at 77%. Also, the “Thermostability (%)” value in experiment [2] worked out at 82%.

B2: Rubisco Activase derived polypeptide 126H4 (enzyme)
chain: MVKEDKQTDGDRWRGLAYDTSDDQQDITRGKGMVDSVFQAPMGTGTHHAVLSSYEYVSQGLRQYNLDNMMDGFYIAPAFMDKLVVHITKNFLTLPNIKVPLILGIWGGKGQGKSFQCELVMAKMGINPIRMSAGELESGNAGEPAKLIRQRYREAADLIKKGKMCCLFINDLDAGAGRMGGTTQYTVNNQMVNATLMNIADNPTNVQLPGMYNKEENARVPIICTGNDFSTLYAPLIRDGRMEKFYWAPTREDRIGVCKGIFRTDKIKDEDIVTLVDQFPGQSIDFFGALRARVYDDEVRKFVESLGVEKIGKRLVNSREGPPVFEQPEMTYEKLMEYGNMLVMEQENVKRVQLAETYLSQAALGDANADAIGRGTFYGKTEEKEPSKLE
For B2, in experiment [2], the “Thermostability (%)” value was 97%.

B3: wild type Rubisco Activase (Arabidopsis, short form RCA1) (enzyme)
chain: MVKEDKQTDGDRWRGLAYDTSDDQQDITRGKGMVDSVFQAPMGTGTHHAVLSSYEYVSQGLRQYNLDNMMDGFYIAPAFMDKLVVHITKNFLTLPNIKVPLILGIWGGKGQGKSFQCELVMAKMGINPIMMSAGELESGNAGEPAKLIRQRYREAADLIKKGKMCCLFINDLDAGAGRMGGTTQYTVNNQMVNATLMNIADNPTNVQLPGMYNKEENARVPIICTGNDFSTLYAPLIRDGRMEKFYWAPTREDRIGVCKGIFRTDKIKDEDIVTLVDQFPGQSIDFFGALRARVYDDEVRKFVESLGVEKIGKRLVNSREGPPVFEQPEMTYEKLMEYGNMLVMEQENVKRVQLAETYLSQAALGDANADAIGRGTFYGKTEEKEPSKLE
As to B3, the “activation state of Rubisco at 40° C. relative to reactions at 25° C.” value in experiment [3] was found to be 70%. For the same molecule, in experiment [1], the “Activation … T.S 45° C./25° C.” value stood at 50%; the “Activation … at 40° C./15 min at 25° C.” value was determined as 32%; the “Rubisco activation” value worked out at 67%. Moreover, the “Thermostability (%)” value in experiment [2] turned out to be 66%.

B4: Rubisco Activase derived polypeptide 301H3 (enzyme)
chain: MVKEDKQTDGDRWRGLAYDTSDDQQDITRGKGMVDSVFQAPMGTGTHHAVLSSYEYVSQGLRQYNLDNMMDGFYIAPAFMDKLVVHITKNFLTLPNIKVPLILGIWGGKGQGKSFQCELVMAKMGINPIMMSAGELESGNAGEPAKLIRQRYREAADLIKKGKMCCLFINDLDAGAGRMGGTTQYTVNNQMVNATLMNIADNPTNVQLPGMYNKEENARVPIICTGNDFSTLYAPLIRDGRMEKFYWAPTREDRIGICKGIFRTDKIKDEDIVRLVDQFPGQSIDFFGALRARVYDDEVRKFVESLGVENIGKRLVNSREGPPVFEQPEMTYEKLMEYGNMLVMEQENVKRVQLAETYLSQAALGDANADAIGRGTFYGKTEEKEPSKLE
Turning to B4, in experiment [1], the “Activation … T.S 45° C./25° C.” value was 89%; the “Activation … at 40° C./15 min at 25° C.” value was 75%; the “Rubisco activation” value was 78%. For the same molecule, in experiment [2], the “Thermostability (%)” value was 89%.

B5: Rubisco Activase derived polypeptide 301C7 (enzyme)
chain: MVKEDKQTDGDRWRGLAYDTSDDQQDITRGKGMVDSVFQAPMGTGTHHAVLSSYEYVSQGLRQYNLDNMMDGFYIAPAFMDKLVVHITKNFLTLPNIKVPLILGIWGGKGQGKSFQCELVMAKMGINPIMMSAGELESGNAGEPAKLIRQRYREAADLIKKGKMCCLLINDLDAGAGRMGGTTQYTVNNQMVNATLMNIADNPTNVQLPGMYNKEENARVPIICTGNDFSTLYAPLIRDGRMEKFYWAPTREDRIGICKGIFRTDKIKDEDIVTLVDQFPGQSIDFFGALRARVYDDEVRKFVESLGVENIGKRLVNSREGPPVFEQPEMTYEKLMEYGNMLVMEQENVKRVQLAETYLSQAALGDANADAIGRGTFYGKTEEKEPSKLE
For the molecule B5, in experiment [1], the “Activation … T.S 45° C./25° C.” value came to 84%; the “Activation … at 40° C./15 min at 25° C.” value stood at 92%; the “Rubisco activation” value is 83%. In experiment [2], the “Thermostability (%)” value was determined as 98%.

B6: Rubisco Activase derived polypeptide 182B11 (enzyme)
chain: MVKEDKQTDGDRWRGLAYDTSDDQQDITRGKGMVDSVFQAPMGTGTHHAVLSSYEYVSQGLRQYNLDNMMDGFYIAPAFMDKLVVHITKNFLTLPNIKVPLILGIWGGKGQGKSFQCELVMAKMGINPIMISAGELESGNAGEPAKLIRQRYREAADLIKKGKMCCLFINDLDAGAGRMGGTTQYTVNNQMVNATLMNIADNPTNVQLPGMYNKEENARVPIICTGNDFSTLYAPLIRDGRMEKFYWAPTREDRIGVCKGIFRTDKIKDEDIVTLVDQFPGQSIDFFGALRARVYDDEVRKFVESLGVEKIGKRLVNSREGPPVFEQPEMTYEKLMEYGNMLVMEQENVKRVQLAETYLSQAALGDANADAIGRGTFYGKTEEKEPSKLE
B6: the “Thermostability (%)” value in experiment [2] came to 84%.

B7: Rubisco Activase derived polypeptide 383A12 (enzyme)
chain: MVKEDKQTDGDRWRGLAYDTSDDQQDITRGKGMVDSVFQAPMGTGTHHAVLSSYEYVSQGLRQYNLDNMMDGFYIAPAFMDKLVVHITKNFLTLPNIKVPLILGIWGGKGQGKSFQCELVMAKMGINPIMMSAGELESGNAGEPAKLIRQRYREAADLIKKGKMCCLLINDLDAGAGRMGGTTQYTVNNQMVNATLMNIADNPTNVQLPGMYNKEENARVPIICTGNDFSTLYAPLIRDGRMEKFYWAPTREDRIGICKGIFRTDKIKDEDIVRLVDQFPGQSIDFFGALRARVYDDEVRKFVESLGVENIGKRLVNSREGPPVFEQPEMTYEKLMEYGNMLVMEQENVKRVQLAETYLSQAALGDANADAIGRGTFYGKTEEKEPSKLE
For B7, in experiment [1], the “Activation … T.S 45° C./25° C.” value worked out at 92%; the “Activation … at 40° C./15 min at 25° C.” value is 88%; the “Rubisco activation” value came out at 97%. Further, the “Thermostability (%)” value in experiment [2] stood at 103%.

B8: Rubisco Activase derived polypeptide 184B2 (enzyme)
chain: MVKEDKQTDGDRWRGLAYDTSDDQQDITRGKGMVDSVFQAPMGTGTHHAVLSSYEYVSQGLRQYNLDNMMDGFYIAPAFMDKLVVHITKNFLTLPNIKVPLILGIWGGKGQGKSFQCELVMAKMGINPIMMSAGELESGNAGEPAKLIRQRYREAADLIKKGKMCCLFINDLDAGAGRMGGTTQYTVNNQMVNATLMNIADNPTNVQLPGMYNKEENARVPIICTGNDFSTLYAPLIRDGRMEKFYWAPTREDRIGVCKGIFRTDKIKDEDIVTLVDQFPGQSIDFFGALRARVYDDEVRKFVESLGVENIGKRLVNSREGPPVFEQPEMTYEKLMEYGNMLVMEQENVKRVQLAETYLSQAALGDANADAIGRGTFYGKTEEKEPSKLE
Take B8: the “Thermostability (%)” value in experiment [2] was found to be 84%.

B9: Rubisco Activase derived polypeptide 214A4 (enzyme)
chain: MVKEDKQTDGDRWRGLAYDTSDDQQDITRGKGMVDSVFQAPTGTGTHHAVLSSYEYVSQGLRQYNLDNMMDGFYIAPAFMDKLVVHITKNFLTLPNIKVPLILGIWGGKGQGKSFQCELVMAKMGINPIMMSAGELESGNAGEPAKLIRQRYREAADLIKKGKMCCLFINDLDAGAGRMGGTTQYTVNNQMVNATLMNIADNPTNVQLPGMYNKEENARVPIICTGNDFSTLYAPLIRDGRMEKFYWAPTREDRIGVCKGIFRTDKIKDEDIVRLVDQFPGQSIDFFGALRARVYDDEVRKFVESLGVEKIGKRLVNSREGPPVFEQPEMTYEKLMEYGNMLVMEQENVKRVQLAETYLSQAALGDANADAIGRGTFYGKTEEKEPSKLE
Take B9: in experiment [1], the “Activation … T.S 45° C./25° C.” value came out at 58%; the “Activation … at 40° C./15 min at 25° C.” value came out at 65%; the “Rubisco activation” value is 74%. The “Thermostability (%)” value in experiment [2] was determined as 92%.

B10: Rubisco Activase derived polypeptide 079H6 (enzyme)
chain: MVKEDKQTDGDRWRGLAYDTSDDQQDITRGKGMVDSVFQAPTGTGTHHAVLSSYEYVSQGLRQYNLDNMMDGFYIAPAFMDKLVVHITKNFLTLPNIKVPLILGIWGGKGQGKSFQCELVMAKMGINPIMISAGELESGNAGEPAKLIRQRYREAADLIKKGKMCCLFINDLDAGAGRMGGTTQYTVNNQMVNATLMNIADNPTNVQLPGMYNKEENARVPIICTGNDFSTLYAPLIRDGRMEKFYWAPTREDRIGVCKGIFRTDKIKDEDIVTLVDQFPGQSIDFFGALRAKVYDDEVRKFVESLGVEKIGKRLVNSREGPPVFEQPEMTYEKLMEYGNMLVMEQENVKRVQLAETYLSQAALGDANADAIGRGTFYGKTEEKEPSKLE
B10: in experiment [1], the “Activation … T.S 45° C./25° C.” value was determined as 63%; the “Activation … at 40° C./15 min at 25° C.” value was 66%; the “Rubisco activation” value amounted to 82%. For the same molecule, the “Thermostability (%)” value in experiment [2] is 88%.

B11: Rubisco Activase derived polypeptide 382D8 (enzyme)
chain: MVKEDKQTDGDRWRGLAYDTSDDQQDITRGKGMVDSVFQAPMGTGTHHAVLSSYEYVSQGLRQYNLDNMMDGFYIAPAFMDKLVVHITKNFLTLPNIKVPLILGIWGGKGQGKSFQCELVMAKMGINPIMVSAGELESGNAGEPAKLIRQRYREAADLIKKGKMCCLFINDLDAGAGRMGGTTQYTVNNQMVNATLMNIADNPTNVQLPGMYNKEENARVPIICTGNDFSTLYAPLIRDGRMEKFYWAPTREDRIGICKGIFRTDKIKDEDIVTLVDQFPGQSIDFFGALRARVYDDEVRKFVESLGVENIGKRLVNSREGPPVFEQPEMTYEKLMEYGNMLVMEQENVKRVQLAETYLSQAALGDANADAIGRGTFYGKTEEKEPSKLE
For B11, in experiment [1], the “Activation … T.S 45° C./25° C.” value was determined as 86%; the “Activation … at 40° C./15 min at 25° C.” value stood at 85%; the “Rubisco activation” value was determined as 93%. In experiment [2], the “Thermostability (%)” value is 90%.
